The target in data set [1] is BadA head fragment after trypsin treatment (protease-resistant fragment of approx. 14 kDa) (Bartonella henselae). As to the kind of experiment: not stated; fragments of approx. 14 kDa after trypsin or chymotrypsin treatment (10 min, room temperature, 20 mM MOPS/KOH pH 7.2, 150 mM NaCl); how the trimers were shown is not told.
Data set [2] concerns the target BadA head fragment after chymotrypsin treatment (protease-resistant fragment of approx. 14 kDa) (Bartonella henselae). The data set is described as above.
Data set [3] deals with the molecule itself. The data set can be described thus: SEC-MALS; calibrated analytical S200 column (GE Healthcare) coupled to a MiniDAWN Tristar static light scattering detector; data not shown.

In data set [1], “BadA head fragment after trypsin treatment (protease-resistant fragment of approx. 14 kDa) (domain or fragment)” showed a stoichiometry N of 3.

For “BadA head fragment after chymotrypsin treatment (protease-resistant fragment of approx. 14 kDa) (domain or fragment)”, the stoichiometry N in data set [2] came out at 3.

B1: BadA head fragment (Trp-ring domain, GIN domain, neck and first stalk segment; residues 375 to 536) (domain or fragment)
chain: KALRGMISEKGGWNLTVNNDNNTVVSSGGALDLSSGSKNLKIVKDGKKNNVTFDVARDLTLKSIKLDGVTLNETGLFIANGPQITASGINAGSQKITGVAEGTDANDAVNFGQLKKIETEVKEQVAASGFVKQDSDTKYLTIGKDTDGDTINIANNKSDKRT
notes: Residues 385-498 are resolved in the crystal; also called BadA construct; BadA fragment; source: recombinantly expressed, purified as described [11]
As to B1, in data set [3], the “stoichiometry N” value is 3.

A word on the stoichiometry N: it is the number of molecules, sites or subunits per partner or assembly.
